Data from the supplement of paper PMC9876800.

Tested on: peptide library, one residue held at a place counted from the S/T acceptor
Test: relative phosphorylation of the sub-library (ratio to the mean residue at this position); human; higher = residue favoured
Method in brief: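 In 384-well plates, purified recombinant kinases (human or orthologue constructs) were incubated for 90 min under kinase-specific conditions with 50 μM biotinylated degenerate peptide sub-libraries and 50 μM ATP spiked with γ-32P-ATP. Each sub-library fixed a single residue at one position around a central Ser/Thr. Relative sub-library phosphorylation, measured by phosphorimaging and densitometry of streptavidin membrane spots, is given as a ratio to the mean residue at that position.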

CSNK1G3, construct: Full length, sequence (Q9Y6M4 whole entry, looked up): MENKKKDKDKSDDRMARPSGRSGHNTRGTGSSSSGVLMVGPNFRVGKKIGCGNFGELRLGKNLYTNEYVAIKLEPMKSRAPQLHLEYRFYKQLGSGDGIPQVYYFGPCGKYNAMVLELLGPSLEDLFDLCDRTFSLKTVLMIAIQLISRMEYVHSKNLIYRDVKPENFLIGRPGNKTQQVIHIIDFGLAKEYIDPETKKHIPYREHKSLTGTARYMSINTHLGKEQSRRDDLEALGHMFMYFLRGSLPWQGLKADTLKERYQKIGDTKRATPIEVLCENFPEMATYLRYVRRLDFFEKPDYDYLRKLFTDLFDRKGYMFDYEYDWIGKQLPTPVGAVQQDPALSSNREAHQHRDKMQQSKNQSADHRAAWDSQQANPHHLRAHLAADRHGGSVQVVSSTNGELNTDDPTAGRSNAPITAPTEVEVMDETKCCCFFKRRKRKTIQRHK
GRK5, construct: Full length, sequence (P34947 whole entry, looked up): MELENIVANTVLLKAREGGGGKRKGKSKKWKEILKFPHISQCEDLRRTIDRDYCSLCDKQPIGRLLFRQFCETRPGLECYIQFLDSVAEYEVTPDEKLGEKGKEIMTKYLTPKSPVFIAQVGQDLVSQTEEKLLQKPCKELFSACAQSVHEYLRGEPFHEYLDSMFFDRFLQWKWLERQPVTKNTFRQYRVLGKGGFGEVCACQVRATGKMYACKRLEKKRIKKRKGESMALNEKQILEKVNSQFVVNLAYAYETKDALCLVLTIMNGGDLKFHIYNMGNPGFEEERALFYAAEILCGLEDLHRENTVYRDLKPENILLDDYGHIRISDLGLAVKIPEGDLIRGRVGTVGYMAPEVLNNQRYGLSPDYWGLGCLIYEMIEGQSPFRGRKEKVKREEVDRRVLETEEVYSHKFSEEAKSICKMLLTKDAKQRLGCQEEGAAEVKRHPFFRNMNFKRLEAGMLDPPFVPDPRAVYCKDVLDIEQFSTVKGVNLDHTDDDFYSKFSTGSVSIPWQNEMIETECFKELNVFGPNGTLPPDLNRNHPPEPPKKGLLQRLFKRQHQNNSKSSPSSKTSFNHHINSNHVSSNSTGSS
GRK7, construct: Full length, sequence (Q8WTQ7 whole entry, looked up): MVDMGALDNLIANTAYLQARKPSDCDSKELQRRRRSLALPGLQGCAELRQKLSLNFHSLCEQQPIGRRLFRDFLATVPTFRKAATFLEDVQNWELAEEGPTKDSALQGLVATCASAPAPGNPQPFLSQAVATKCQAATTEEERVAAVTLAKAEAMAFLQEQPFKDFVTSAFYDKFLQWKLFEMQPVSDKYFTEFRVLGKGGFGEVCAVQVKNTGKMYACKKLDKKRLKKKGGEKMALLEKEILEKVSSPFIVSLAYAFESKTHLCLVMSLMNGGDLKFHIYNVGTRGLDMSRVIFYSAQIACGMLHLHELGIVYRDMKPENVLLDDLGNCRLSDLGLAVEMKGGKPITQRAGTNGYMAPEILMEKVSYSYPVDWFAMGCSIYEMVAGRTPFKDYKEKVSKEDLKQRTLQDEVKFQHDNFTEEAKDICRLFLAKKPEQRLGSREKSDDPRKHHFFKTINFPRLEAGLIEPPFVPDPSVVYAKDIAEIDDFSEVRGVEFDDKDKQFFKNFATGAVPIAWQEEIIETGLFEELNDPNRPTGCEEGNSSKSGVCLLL

GRK5, construct: Full length (from UniProt P34947)
relative phosphorylation
Conditions | at +1 | at +2 | at +3 | at +4 | at -1 | at -2 | at -3 | at -4 | at -5
A fixed | 0.822 | 1.35 | 0.828 | 0.969 | 0.728 | 0.802 | 0.852 | 1.03 | 1.06
D fixed | 0.996 | 1.03 | 1.73 | 1.58 | 1.08 | 0.951 | 1.27 | 1.28 | 1.27
E fixed | 2.19 | 0.721 | 1.96 | 1.25 | 0.863 | 1.01 | 1.19 | 1.15 | 1.05
F fixed | 0.966 | 0.879 | 1.06 | 0.823 | 0.867 | 1.67 | 0.85 | 0.912 | 0.967
G fixed | 0.768 | 1.06 | 0.998 | 0.976 | 0.694 | 0.932 | 1.02 | 1.08 | 1.16
H fixed | 0.895 | 0.953 | 1.05 | 0.964 | 1.7 | 0.88 | 1.17 | 0.932 | 1.03
I fixed | 1.01 | 1.15 | 0.61 | 0.762 | 0.732 | 0.735 | 0.828 | 0.863 | 0.892
K fixed | 0.804 | 0.947 | 0.767 | 1.04 | 0.909 | 0.871 | 0.788 | 0.831 | 0.861
L fixed | 0.81 | 0.735 | 0.717 | 0.662 | 0.874 | 0.765 | 0.707 | 0.891 | 0.82
M fixed | 1.04 | 0.841 | 0.724 | 0.723 | 0.829 | 0.738 | 0.792 | 0.887 | 0.817
N fixed | 0.888 | 0.905 | 0.721 | 0.911 | 1.19 | 0.889 | 1.04 | 0.984 | 0.94
P fixed | 0.564 | 0.73 | 0.997 | 1.48 | 0.986 | 0.838 | 0.977 | 1.19 | 1.02
Q fixed | 1.21 | 0.74 | 0.808 | 1.01 | 0.872 | 0.737 | 0.867 | 0.85 | 0.789
R fixed | 1.13 | 1.12 | 0.927 | 0.899 | 1.12 | 1.05 | 1.04 | 0.87 | 0.806
V fixed | 1.06 | 1.51 | 0.705 | 0.867 | 1.07 | 0.751 | 1.5 | 0.955 | 1.06
W fixed | 0.944 | 1.3 | 1.35 | 1.1 | 0.933 | 2.08 | 1.13 | 1.23 | 1.32
Y fixed | 0.898 | 1.03 | 1.06 | 0.982 | 1.55 | 1.3 | 0.969 | 1.08 | 1.13
pThr fixed | 2.07 | 0.82 | 1.27 | 2.47 | 0.587 | 1.43 | 2.65 | 1.75 | 1.36
pTyr fixed | 2.19 | 0.868 | 1.08 | 1.37 | 0.964 | 2.77 | 2.56 | 2.29 | 1.88

GRK7, construct: Full length (from UniProt Q8WTQ7)
relative phosphorylation
Conditions | at +1 | at +2 | at +3 | at +4 | at -1 | at -2 | at -3 | at -4 | at -5
A fixed | 0.839 | 1.23 | 0.77 | 1.09 | 0.809 | 0.805 | 0.636 | 0.878 | 0.87
D fixed | 0.701 | 0.93 | 1.85 | 1.55 | 1.57 | 3.03 | 2.12 | 2.48 | 2.26
E fixed | 2.1 | 0.894 | 4.35 | 1.69 | 1.31 | 2.43 | 1.75 | 1.9 | 2.03
F fixed | 1.46 | 0.843 | 0.513 | 0.682 | 0.512 | 0.624 | 0.474 | 0.516 | 0.621
G fixed | 0.823 | 1.15 | 0.924 | 1.1 | 1.7 | 1.13 | 1.24 | 1.04 | 1.34
H fixed | 0.927 | 1.21 | 0.851 | 1.08 | 1.1 | 0.573 | 0.673 | 0.699 | 0.883
I fixed | 0.765 | 1.11 | 0.372 | 0.799 | 0.495 | 0.533 | 0.499 | 0.553 | 0.729
K fixed | 0.58 | 1.02 | 1.54 | 1.05 | 1.47 | 0.693 | 1.44 | 0.738 | 0.838
L fixed | 0.907 | 0.921 | 0.581 | 0.818 | 0.621 | 0.548 | 0.534 | 0.54 | 0.589
M fixed | 0.899 | 0.689 | 0.401 | 0.658 | 0.53 | 0.572 | 0.493 | 0.58 | 0.678
N fixed | 0.704 | 1.15 | 0.604 | 0.726 | 1.66 | 0.956 | 1.16 | 0.872 | 0.96
P fixed | 0.826 | 1.2 | 0.999 | 1.43 | 1.26 | 1.71 | 1.89 | 2.61 | 1.16
Q fixed | 1.08 | 0.88 | 0.896 | 0.926 | 1.22 | 0.687 | 0.794 | 0.728 | 0.73
R fixed | 0.56 | 1.02 | 0.848 | 0.792 | 0.891 | 0.762 | 1.58 | 0.798 | 0.955
V fixed | 0.654 | 1.07 | 0.415 | 0.894 | 0.629 | 0.589 | 0.544 | 0.754 | 0.751
W fixed | 1.93 | 0.822 | 0.572 | 0.758 | 0.513 | 0.614 | 0.554 | 0.702 | 0.858
Y fixed | 1.25 | 0.868 | 0.515 | 0.975 | 0.717 | 0.737 | 0.623 | 0.61 | 0.753
pThr fixed | 2.52 | 1.05 | 1.66 | 3.54 | 1.01 | 3.79 | 2.48 | 2.06 | 1.5
pTyr fixed | 7.56 | 1.29 | 1.41 | 1.9 | 2.83 | 3.58 | 2.14 | 1.9 | 1.67

CSNK1G3, construct: Full length (from UniProt Q9Y6M4)
relative phosphorylation
Conditions | at +1 | at +2 | at +3 | at +4 | at -1 | at -2 | at -3 | at -4 | at -5
A fixed | 0.678 | 0.743 | 0.752 | 0.708 | 0.916 | 1.39 | 0.508 | 0.923 | 1.01
D fixed | 0.543 | 0.941 | 2.63 | 1.12 | 0.701 | 1.08 | 5.05 | 1.58 | 1.8
E fixed | 0.611 | 0.607 | 1.46 | 0.928 | 0.788 | 1.27 | 3.58 | 1.78 | 1.62
F fixed | 1.07 | 1.17 | 1.22 | 1.43 | 0.905 | 0.576 | 0.522 | 1.07 | 0.859
G fixed | 0.459 | 0.67 | 0.931 | 1.07 | 0.635 | 0.903 | 0.475 | 0.818 | 0.86
H fixed | 0.841 | 1.44 | 0.901 | 0.991 | 0.949 | 0.716 | 0.548 | 0.898 | 0.988
I fixed | 1.81 | 1.02 | 0.58 | 0.696 | 1.39 | 0.963 | 0.467 | 0.714 | 0.82
K fixed | 0.778 | 0.952 | 0.672 | 0.822 | 1 | 0.832 | 0.652 | 0.763 | 0.896
L fixed | 2.24 | 1.1 | 0.772 | 0.808 | 1.23 | 1.05 | 0.484 | 0.796 | 0.91
M fixed | 1.58 | 0.945 | 0.748 | 0.989 | 1.32 | 0.882 | 0.504 | 0.872 | 0.96
N fixed | 0.721 | 1.06 | 1.05 | 0.947 | 0.781 | 1.57 | 0.645 | 0.801 | 1.04
P fixed | 0.443 | 0.482 | 0.683 | 0.97 | 0.579 | 0.471 | 0.418 | 0.897 | 0.658
Q fixed | 0.843 | 0.864 | 0.869 | 0.879 | 1.1 | 1.26 | 0.528 | 0.788 | 0.79
R fixed | 1.03 | 1.25 | 0.877 | 1.02 | 1.28 | 1.54 | 1.02 | 0.845 | 0.992
V fixed | 1.5 | 0.936 | 0.794 | 0.814 | 1.23 | 1.17 | 0.458 | 0.669 | 0.876
W fixed | 1.01 | 1.23 | 1.11 | 1.48 | 1.22 | 0.715 | 0.581 | 1.69 | 1.05
Y fixed | 0.855 | 1.59 | 0.941 | 1.33 | 0.974 | 0.613 | 0.56 | 1.1 | 0.877
pThr fixed | 0.618 | 0.558 | 1.52 | 2.55 | 0.636 | 4.34 | 144 | 10.2 | 4.37
pTyr fixed | 1.13 | 5.14 | 9.54 | 2.97 | 0.797 | 1.85 | 12.1 | 5.93 | 2.97
